How the values were obtained:
[1] = biological target: T1, biotinylated human Amyloid beta 1-40 (Homo sapiens, UniProt P05067); assay: Surface Plasmon Resonance specificity profiling of IgGs (BIAcore2000); format: binding; details: peptide 64-1024 nM
T1 construct: biotinylated human Amyloid beta 1-40 (rPeptide, USA; cat: A1111); purchased rPeptide, USA A1111; host or cells: synthetic peptide
Protocol: Surface Plasmon Resonance was used to verify the specificity of the affinity-optimized IgGs for the human Amyloid beta 1-42 peptide. Briefly, the BIAcore2000 (GE Healthcare, UK) biosensor instrument was used to assess the kinetic parameters of the interaction between each test IgG and a range of small peptides including synthetically-produced human Amyloid beta 1-42 and human Amyloid beta 1-40. These experiments were performed essentially as described by Karlsson et al. (Karlsson et al., 1991).
The interaction between each test IgG and each peptide was estimated using assays in which the antibody was non-covalently captured by a protein G surface that was itself amine linked to a proprietary CM5 chip. The interaction between antibody and peptide was observed using a 5 application single cycle approach. The chip surface was regenerated between cycles by paired 40 second injections of 10 mM Glycine pH 2.0 to remove ligand and bound antibody. The test antibody was then reapplied for each peptide injection cycle.
Blank reference flow-cell data were subtracted from each IgG dataset and a zero-concentration antibody-only buffer blank was double-reference subtracted from the main dataset.

Amyloid plaques = assay: In vitro immunohistochemistry on Tg2576 mouse brain sections
From the text: Briefly, the lead antibodies were screened on human Alzheimer's Disease brain sections and Tg2576 mouse brain sections to identify anti-Amyloid beta 1-42 antibodies that bound to Amyloid plaques in vitro.
In these experiments, human brain tissue was isolated from the frontal cortex of two individuals with severe Alzheimer's Disease (ApoE genotype 3/3, Braak stage 6 and ApoE genotype 4/3, Braak stage 5). As a control, equivalent tissue was isolated from one non-dementia individual (ApoE genotype 3/3, Braak stage 1). Mouse brain tissue was isolated from Tg2576 mice at an age of 15 months (2 mice) and 22 months (2 mice). Antibodies were tested at concentrations of 2, 5, 10 and 20 ug ml^−1.

[2] = biological target: T2, Amyloid beta 1-42 peptide (Rattus norvegicus, UniProt P08592); assay: Total Amyloid beta 1-42 peptide in rat brain homogenates (ELISA); format: in vivo; details: Sprague-Dawley rats, 0.25-10 mg/kg weekly over 14 days
T2 construct: Measurement of free Amyloid beta 1-42 peptide in rat CSF; from tissue; host or cells: CSF and brain homogenate of Sprague-Dawley rats
T2 sequence (P08592 672-713 limits assumed): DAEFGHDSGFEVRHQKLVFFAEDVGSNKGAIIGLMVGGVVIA
Protocol: Eight-week old male albino Harlan Sprague-Dawley rats (n=8-12) received a single dose of Abet0380-GL IgG1-TM antibody by intravenous injection with a dosing vehicle of 25 mM Histidine, 7% Sucrose, 0.02% p80 surfactant, pH 6.0 at 5 ml/kg. Dosing solutions were made just before dosing. Animals were anaesthetized at the time indicated and cerebrospinal fluid (CSF) was aspirated from the cistema magna. CSF samples were centrifuged for 10 minutes at approximately 3000× g at 4° C. within 20 minutes of sampling to remove cells or debris. Samples were then frozen on dry ice and stored at −70° C. for subsequent analysis.
Animals were sacrificed by decapitation, brain tissue was dissected and Amyloid beta peptides were extracted from brain tissue in diethylamine (DEA; Fluka. Sigma. UK; cat: 31729). Briefly, frozen brain tissue was homogenized in 0.2% DEA and 50 mM NaCl (Merck, USA: cat: 1.06404.1000). Brain homogenates were ultracentrifuged at 133,000×g, for 1 hour. Recovered supernatants were neutralized to pH 8.0 with 2 M Tris-HCl (TRIZMA®-hydrochloride; Sigma, UK; cat: 93363) and stored at −70° C. until analysis. Animal experimentations were performed in accordance with relevant guidelines and regulations provided by the Swedish Board of Agriculture. The ethical permission was provided by an ethical board specialized in animal experimentations: the Stockholm Södra Animal Research Ethical Board.
Measurement of total (free and Abet0380-GL bound) Amyloid beta 1-42 peptide in rat brain homogenates was performed using modifications of the mouse Amyloid beta (1-42) colorimetric ELISA kit (Invitrogen, UK: cat: KMB3441). […] To stop the reaction, 100 μl of Stop Solution was added to each well and the plate was read within 2 hours at an absorbance of 450 nm. […]
The ability of antibody Abet0144-GL to sequester amyloid beta 1-42 was investigated in a PK-PD study in normal rats. […] Free and total amyloid beta 1-42 levels were measured using assays described above.

T1 sequence (P05067 672-711): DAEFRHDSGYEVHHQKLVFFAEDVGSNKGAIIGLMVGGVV

B1: Abet0380-GL IgG1-TM: germlined Abet0380; VH SEQ ID NO: 524, VL SEQ ID NO: 533; human IgG1 triple mutant format (antibody, listed as Homo sapiens, V domains shown)
VH: EVQLLESGGGLVQPGGSLRLSCAASMGNFNYQTMWWVRQAPGKGLEWVSVIGKTNENIAYADSVKGRFTISRDNSKNTLYLQMNSLRAEDTAVYYCAREWMDHSRPYYYYGMDVWGQGTLVTVSS
VL: SYELTQPPSVSVSPGQTASITCSGHNLEDKFASWYQQKPGQSPVLVIYRDDKRPSGIPERFSASNSGHTATLTISGTQAMDEADYYCSSQDTVTRVFGGGTKLTVL
modifications: human IgG1 triple mutant constant region; /note=“Abet0380-GL”
notes: germlined Abet0380; human IgG1 triple mutant format
[1]
  binding of biotinylated human Amyloid beta 1-40 peptide to immobilized antibody: no discernable binding
[1]; listed as Abet0380-GL (germlined) IgG1-TM
  binding of biotinylated human Amyloid beta 1-40 peptide to immobilized antibody: no binding
Amyloid plaques; Tg2576 brain sections
  core plaques (CP) staining score: 4
Amyloid plaques; Tg2576 mouse brain sections, 22 month old mice, 20 μg/ml
  plaque recognition score: 4
[2]
  effect on total Amyloid beta 1-42 peptide in brain tissue: dose-dependent increase
